Results on three substances are retold here after doi:10.1101/2020.04.11.036434.

In the assay the target is PTEN (WT), recombinant insect-cell purified (UniProt P60484). The assay can be described thus: SPR.

Take “P-Rex2 (674-683) P-Rex1 sequence-swap mutant”: the fold decrease in affinity against P-Rex2 (WT) amounted to 4 fold.

Consider “P-Rex2 (904-912) P-Rex1 sequence-swap mutant”, for which the fold decrease in affinity against P-Rex2 (WT) turned out to be 7 fold.

Consider “P-Rex2 (922-931) P-Rex1 sequence-swap mutant”, for which the fold decrease in affinity against P-Rex2 (WT) is 6 fold.
